In article PMC7368059:

Target: full length La Crosse virus L protein (RNA-dependent RNA polymerase) (La Crosse virus (strain LACV/mosquito/1978)) (UniProt A5HC98)
Experiment: crystal structure; LACV-L FL with 3' (1-16) and 5' (9-16) vRNA at 5 mg/ml, 5' (1-10) vRNA soaked in; 100 mM Tris pH 8.0, 100 mM NaCl, 8% PEG 4000; space group C2, 4.0 Å; two L protein complexes per asymmetric unit

“full length La Crosse virus L protein (RNA-dependent RNA polymerase) (from UniProt A5HC98 1-2263) (enzyme)” was tested, and the stoichiometry N was 2.
